The results in this text go back to paper PMC11718230 (Nature Communications, 2025).

The assay concerns the target T1, ATTO647N-STX17 SNARE domain (residues 161-231, E198C) (UniProt P56962 161-231, E198C, ATTO647N maleimide conjugated (cysteine introduced by E198C)).
T1 sequence (looked up): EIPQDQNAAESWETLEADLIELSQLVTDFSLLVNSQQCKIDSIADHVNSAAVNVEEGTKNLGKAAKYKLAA
Description: FRET or BRET. In general terms: In BRET a luciferase serves as donor, and the signal depends on an acceptor being close.

B1: ATTO550-VAMP7 SNARE domain (residues 123-187, E152C) (domain or fragment, UniProt P51809 123-187, looked up)
chain: LDKVMETQAQVDELKGIMVRNIDLVAQRGC(ATTO550 maleimide)RLELLIDKTENLVDSSVTFKTTSRNLARAMCMKNL
Regarding B1, the binding result is “binds”.

B2: ATTO550-VAMP8 SNARE domain (10-74, E39C) (domain or fragment, UniProt Q9BV40 10-74, looked up)
chain: NDRVRNLQSEVEGVKNIMTQNVERILARGC(ATTO550 maleimide)NLEHLRNKTEDLEATSEHFKTTSQKVARKFWWKNV
For B2, the binding result is reported as “binds”.
